{"source": "the nanobody polyreactivity screen of Harvey et al. (2022)"}
{"test": "yeast display, Sf9 membrane polyspecificity reagent, FACS + sequencing; frameworks hold sequencing errors", "outline": "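A synthetic nanobody library was expressed on Saccharomyces cerevisiae BJ5465 by galactose induction for 36–48 hours. The library was stained for 1 hour at 4 °C with 10% biotinylated, detergent-solubilized Sf9 membrane reagent and enriched with streptavidin microbeads before FACS. Low and high (top ~1%) gates were set on anti-HA fluorescence for expression and streptavidin fluorescence for reagent binding, and each polyreactivity label reflects the gate of origin.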"}
{"sequence": "QVQVVESGGGLVQAGGSLRLSCAASGSTFVLNAMGWYRQAPGKERELVAAITYGGSTYYADSVKGRFTISRDNAKNTVYLQMNSLKPEDTAVYYCAVTYNGDSSWPGDYWGQGTQVTVSS", "polyreactivity (PSR sort gate)": "low polyreactivity"}
{"sequence": "QVQLVESGGGLVQAGGSLRLSCAASGFTFPGYVMGWYRQAPGKERELVAAISRSGGRTYYADSVKGRFTISRDNAKNTVYLQMNSQKPDDTAVYYCNTPDPGRDSDYWGQGTQVTVSS", "polyreactivity (PSR sort gate)": "high polyreactivity"}
{"sequence": "QVQLVESGGGLVQAGGSLRLSCAASGIILSYYVMGGYRQAPGNATELVAAISLRGGTTYYADSVKGRFTISRDNANTTVYIQMNSLKPEDTAVYYCAAQRPGFGYEYDYWGQGTQVTVSS", "polyreactivity (PSR sort gate)": "high polyreactivity"}
{"sequence": "QVQLVESGGGLVQAGGSLRLSCAASGSIFNWYAMGWYIQAPGKERELVAAISSSGSTNYADSVKGRFTISRDNAKNTVYLQMNSLKPEDTEVYYCNADEYYLNNYNYGYWGQGTQVTVSS", "polyreactivity (PSR sort gate)": "low polyreactivity"}
{"sequence": "RVQLVESGGGLVQAGGSLRLSCAASGGTFPVYAMGWYRQAPGKEWELVAAISYSGVTTYYADSVKGRFTISRDNAKNTVYLQMNSLKPEDTAVYYCNADWRRWYIFSYDYWGQGTQVTVSS", "polyreactivity (PSR sort gate)": "low polyreactivity"}
{"sequence": "QVQLQESGGGQVQAGGSLRLSCAASGTIFLYAFKGWYRQAPGKERELVAAIDVGTTTNYADSVKGRFTISRDNAKNTVYLQMNSLKPEDTAVYYCAANLGYLDDLGYWGQGTQVTVSS", "polyreactivity (PSR sort gate)": "low polyreactivity"}
{"sequence": "EEELVESGGGLVQAGGSLRLSCAASARISTVMLWDWYRQAPGKDRELVAAITKSGGSTYYADSVKGRFTISRDNAKNTVYLQMNSLIPEDTAVYYCAADRYAILFYAEDYWGQGTQETVSS", "polyreactivity (PSR sort gate)": "low polyreactivity"}
{"sequence": "QVQLVESGGGLVQAGGSLRLSCAASGRIFTYNPMGWYRQAPGKERELVAVISRRGGSTYYADSVKGRFTISRDNAKNTVYLQMNSLKPEDTAVYYCAADLPSYPYEYWGQGTQVTVSS", "polyreactivity (PSR sort gate)": "low polyreactivity"}
{"sequence": "QVQLVESGGGLVQAGGSLRLSCAASASIYPYAMGWYRQAPGKERELVAAITRSGASTYYADSVKGRFTISRDNAKNTVYLQMNSMKPEDTAVYYCAAYALRGVRYPYRVDFYYWGQGTQVTVSS", "polyreactivity (PSR sort gate)": "high polyreactivity"}
{"sequence": "QVQLVESGGGLVQAGCSLRLSCAASGFILSDNAMGWYRQAPGKERELVAAINSGGSTYYADSVKGRFTISRDNAKNTVYFQMNSLKPEDSAVYYCAADYSTWLRAYDYWGQGTQVTVSS", "polyreactivity (PSR sort gate)": "low polyreactivity"}
{"sequence": "QVQLVESGGGLVQAGGSLRLSCAASGSIFVGYDMGWYRQAPGKARELVAAITRDGDTNYADSVKGRFTISRDNAKNTVYLQMNSLKPEDTAVYYCAADRWLYSWFFNYDQGDYWGQGTQVTVSS", "polyreactivity (PSR sort gate)": "low polyreactivity"}
{"sequence": "QVQLEESWGGLVQAGGSLRLICAASGSIFSYYAMGWYRQAPGKERELVAVITSGGSTYYADSVKGRFTISRDNAKNTVYLQMNSLKPEDTAVYYCAVKYPELRTWGYYYWGQGTQVTVSS", "polyreactivity (PSR sort gate)": "high polyreactivity"}
{"sequence": "QVQLVESGGGLVQAGGSLRLSCAASGRIFYYYAMGWYRQAPGKEREFVADISARGGSTYYADSVKGRFTISRDNAKNTVYLQMNSLKPEDTAVYYCAATTGLYTRYGYWGQGTQVTVSS", "polyreactivity (PSR sort gate)": "high polyreactivity"}
{"sequence": "QVQLVESGGGLGQAGCSLRLSCAASGSTFAVYAMGWYRQAPGKERELVATITGSGGSTYYADSVKGRFTISRDNAKNPVYLQMNSLKPEDNAVYYCAAEVVAWSLYEDFKTYDYWGQGTQVTVSS", "polyreactivity (PSR sort gate)": "low polyreactivity"}
{"sequence": "QVQLVESGGGLVQAGGSLRLSCAASGSIFGDYVMGWNRQAPGKERELVAAINRGGSTYYADSVKGRFTISRDNAKNTVYLQMNSLKPEDTAVYYCAAGYPSWYYGYPYDSWGQGSQVTVSS", "polyreactivity (PSR sort gate)": "low polyreactivity"}
{"sequence": "QVQLVESGGGLVQAGGSLRLSCAASGNTFVRNVMGWYRQAPGKERELVAAITWRSVRTYYADSVKGRFTISRDTAKNTVYLQMNSLKPEDTAVYYCAAASASRHGEYDYWGQGTQVTVSS", "polyreactivity (PSR sort gate)": "low polyreactivity"}
{"sequence": "QVQLVESGGGLVQAGGSLRLSCAASGRTFDVYAMGWYRQAPGKERELVAAITSGGSTYYADSVKGRFTISRDNAKNTVYLQMNSLKPEDTAVYYCAKASSATRYVQLRQDYDYWGQGTQVTVSS", "polyreactivity (PSR sort gate)": "low polyreactivity"}
{"sequence": "QVQLVESGGGLVQAGGSLRLSCAAYGSTFQRYAMGWYRQAPGKERELVAAITLSGGNTYYADSVKGRFTISRDNAKNNVYLQMNSLKPEDTAVYYCAARRYRGYDYWGQGTQVTVSS", "polyreactivity (PSR sort gate)": "high polyreactivity"}
{"sequence": "QVQLVESGGGLVQAGGSLRLSCAASGRIFQIYAMGWYRQAHGKERELVAAISSGGTTYYADSVKGRFTISRDNAKYTVYLLMNSLKPEDTAVYYCADASGYYRYDYWGQGTQVTVSS", "polyreactivity (PSR sort gate)": "high polyreactivity"}
{"sequence": "QVQLVESGGGLVQAGGSLRLSCAASGSIFAWYGMGWYRQAPGKERELVAAISTAGSTNYADSVKGRFTISRDNAKNTVYLQMNSLKPEDTAVYDCAKKSSWYYPERFDYWGQGTQVTVSS", "polyreactivity (PSR sort gate)": "low polyreactivity"}
{"sequence": "QVQLVESGGGLVQAGGSLRLSCAASGNIFSRYAMGWYRKAPGKERELVAAISKSGGSTYYADSVKGRFTISRDNAKNTVYLQMNSLKPEDSAVYYCAAYSFFLGYPEFDYWGQGTQVTVSS", "polyreactivity (PSR sort gate)": "high polyreactivity"}
{"sequence": "QVQLVESCGGLVQAGGSLRLICDDSGNTFNRYAMGWYRQAPGKERELVADITSGGRTYYAYSVKGRFTISRDNAKNTVYLQMNSVKPVDTAVYYCAGEWWDLGNFYWSYRYDYWGQCTQVTVSS", "polyreactivity (PSR sort gate)": "high polyreactivity"}
{"sequence": "QVQLVESGGGLVQAGGSLRLSCAASGSIFYPYAMGWYRQAPGKERELVATISSGGRTNYADSVKGRFTISRDNAKNTVYLQMNSLKPEDTAVYYCAKDRYPTSWWFRRRDYWGQGTQVTVSS", "polyreactivity (PSR sort gate)": "high polyreactivity"}
{"sequence": "QDQLVESGGGLVQAGVSLLLICAASGSTSSVYAMGWYRQAPGKERELVAAIRWSTGSTYYADSVKGLFTISRDNAKNTVYLHMNCLKPEETALYYCAAEVYTSVHIYSWYYYWGQGTKVTVSS", "polyreactivity (PSR sort gate)": "high polyreactivity"}
{"sequence": "QVQLVESGGGLVQAGGSLRLSCAASGIIFWWYAMGGDRQAPGKERELVAAISGTGGSTYYADSVKGRFTISRDNAKNTVYLQMNTLKPEDTAVSYCPARGTSSSYYDYDYWGQGTQVTVSS", "polyreactivity (PSR sort gate)": "low polyreactivity"}
{"sequence": "QVQLEESGGRLVQAGGSLRLICAASGSTFLANAMGWYRQAPGKERELVATISSGGSTNYADSVKGRFTISRDNAKNTVYLQMNSLKPEDTAVYYCAAEYWYAWQEYGYWGQGTQVTVSS", "polyreactivity (PSR sort gate)": "low polyreactivity"}
{"sequence": "QVQLVESGGGLVQAGGSLRLSCAASGSIFYANTLGWYRQAPGTERELVAAINWSGGRTYYADSVKGRFTISRDNAKNTVYLQMNSLKPEDTAVYYCAASATYLYKYPVWGYDYWGQGTQVTVSS", "polyreactivity (PSR sort gate)": "high polyreactivity"}
{"sequence": "QVQLVESVGCLVQAGGSLRLSCAASGFIFGSYTMGWYRPAPGKESELVAAISSSGGNTYYADSVKGRFTISRDHAKNTVYLQMNSLKPEDTAVYYCAVDYIYDDAYNYWGQGTQVTVSS", "polyreactivity (PSR sort gate)": "high polyreactivity"}
{"sequence": "QVQLVESGGGLVQAGGSLRLSCAASGSIFASNAMGWYRQAPGKERELVAAINSGDSTNYADSVKGRFTISRDNAKNTVYFQMNSLKPEDTAVYYCARGLEERYDYWGQGTQVTVSS", "polyreactivity (PSR sort gate)": "low polyreactivity"}
{"sequence": "QVQLVESGGGLVQAGGSLRLSCAASGSTFPFYAMGWYRQAPGKERELVAAITSGGSTYADSVKGRFTITRDNAKNTVYLQMNSLKPEDTSVYYCAASWPRWWRFGYWGQGTQVNVSS", "polyreactivity (PSR sort gate)": "low polyreactivity"}
{"sequence": "QVQLVESGGGLVQAGGSLRLSCAASGSNFGEYAMGWYIQAPGKERELVAAISYRGGSTYYADSVKGRFTISRDNAKNTVYLQMNSLKPEDTAVYYCNRDRRRRGAYGRPGGDHWGQGTQVTVSS", "polyreactivity (PSR sort gate)": "high polyreactivity"}
{"sequence": "QVQLVESGGGLVQAGGSLRLSCASSGRTFTYYTMGWYRQAPGKERELVAAISSSGGSTYYADSVKGRFTISRDNAKNTVYLQMNSLKPEDTAVYYCAAVRGRLLPPYGYWGQGTQVTVSS", "polyreactivity (PSR sort gate)": "high polyreactivity"}
{"sequence": "QVQLVESGGGLVQAGGSLRLSCAASGSTFAGYAMGWYRQAPGKERELVAAISRGGRTYYADSVKGRFTISRDNAKNTVYLQMNSLKPEDTAVYYCAKYSAWYTYTYDYWGQGTQVTVSS", "polyreactivity (PSR sort gate)": "high polyreactivity"}
{"sequence": "QVQLVESGGVLVQAGGSLRLSCAASGRTFYSYAMGWYRQAPGNERELVAAITSSGGSTYYADSVKGRFTISRDNAKNTVYLQMNRLKPEDTAVYYCAAPRGRHFDYWGQGTQVTVSS", "polyreactivity (PSR sort gate)": "high polyreactivity"}
{"sequence": "QVQLVESGGGLVQAGGSLRLSCAAYGRTFEINAMGWYRQATGKERELVAAISWDDGSTYYADSVKGRFTISRDNAKNTVYLQMNSLKPEDTAVYYCAAESPLHYTHRRGYEYWGQGTQVTVSS", "polyreactivity (PSR sort gate)": "low polyreactivity"}
{"sequence": "QVQLQESGGGLVLAGGSMRLSCAASGSISAHAYMGWERQAPGKEREHVAGINYGDNTNYADSVKGRFTISRDNEHRVSADEQPETGRYRGVLLRGFLELFYYYIYWGQGTQVTVSS", "polyreactivity (PSR sort gate)": "high polyreactivity"}
{"sequence": "QVQLVESGGGLVQAGGSLRLSCAASGSTFYSYAMGWYRQAPGKERELVAAITRGGSTYYADSVKGRFTISRDNAKNTVYLQMNSLKPEDTAVYYCAARPWTSASYDYWGQGTQVTVSS", "polyreactivity (PSR sort gate)": "low polyreactivity"}
{"sequence": "QVQLVESGGGLVQAGGSLPLSCAATGRTFSYNAMGSYRQAPAKETELVAAISSGGTTNYADSVKGRFTISRDNAKNTVYLQMNSVKPDDTAVYYCNADRLVWSFTDYGFSQYDYWGQGTQVTVSS", "polyreactivity (PSR sort gate)": "low polyreactivity"}
{"sequence": "QVQLVESGGGLVQAGGSLRLICAASGRIFGYYAMGWYRQAPGKERELVATITFGGGSSYYADSVKGRFTISRDNAKNTVNLQMNSLKPEDTAVYYCAAVSGYLGIYGDEYSWGQGTQVTVSS", "polyreactivity (PSR sort gate)": "low polyreactivity"}
{"sequence": "QVQLVDSGGGLVQGGGRLRLSCAASGFTLQSNAMGWYRQAPGKERELVAAISFRGGSTYYADSVKGRFTISRDNAKNTVYLQKNSLKPEDTAVYYCAADFYVHSAYYYGYWGQGTQVTVSS", "polyreactivity (PSR sort gate)": "low polyreactivity"}
{"sequence": "QVQLVESGGGLVQAGGSLRLSCAAYGGTFYYYAMGWYRQAPGKEREFVAAITWTGGRTYYADSVKGRFTISRDNAKNTVYLQMNSLKPEDTAVYYCAASDRYGGRDYWGQGTQVTVSS", "polyreactivity (PSR sort gate)": "high polyreactivity"}
{"sequence": "QVQLQESGGGLVQAGGSLRLSCAASGYISWYSEMGWYRQAPGKEREFVATITCGTTTNYAVSVKGRFTISRDNAKNTVYLQKNSLKPEDTAVYYCAVHDARHYEFDYWGQGTQVTVSS", "polyreactivity (PSR sort gate)": "high polyreactivity"}
{"sequence": "QVQLVESGGGLVQAGGSLRLSCAASGSIFDINAMGWYRQAPGKERELVAAISYGGGSTSYADSVKGRFTISRDNAKNTVYLQMNSLKPEDTAVYYCAAGYTQSPRDDSWGQGTQVTVSS", "polyreactivity (PSR sort gate)": "low polyreactivity"}
